In US7638324 (BURNHAM INSTITUTE FOR MEDICAL RESEARCH, dated 2009):

B1: Bad (other, UniProt Q92934 1-168, looked up)
chain: MFQIPEFEPSEQEDSSSAERGLGPSPAGDGPSGSGKHHRQAPGLLWDASHQQEQPTSSSHHGGAGAVEIRSRHSSYPAGTEDDEGMGEEPSPFRGRSRSAPPNLWAAQRYGRELRRMSDEFVDSFKKGLPRPKSAGTATQMRQSSSWTRVFQSWWDRNLGRGSSAPSQ
B2: GFP-Bcl-GS (ΔBH3) (other)
chain: MCSTSGCDLEEIPLDDDDLNTIEFKILAYYTRHHVFKSTPALFSPKLLRTRSLSQRGLGNCSANESWTEVSWPCRNSQSSEKAINLGKKKSSWKAFFGVVEKEDSQSTPAKVSAQGQRTLEYQDSHSQQWSRCLSNVEQCLEHEAVDPKVISIANRVAEIVYSWPPPQATQAGGFKSKEIFVTEGLSFQLQGHVPVASSSKKDEEEQILAGSDTAFIPIPLVDTSIQGFPQDGLMACI
notes: The limits of the deletion would have to be derived from the primers; they are not guessed here; also called GFP-Bcl-GS (DBH3); mutant of Bcl-GS lacking the BH3 domain; not shown: N-terminal EGFP and the short vector linker of pEGFP-C1 (Clontech)
B3: Bid (other, UniProt P55957 1-195, looked up)
chain: MDCEVNNGSSLRDECITNLLVFGFLQSCSDNSFRRELDALGHELPVLAPQWEGYDELQTDGNRSSHSRLGRIEADSESQEDIIRNIARHLAQVGDSMDRSIPPGLVNGLALQLRNTSRSEEDRNRDLATALEQLLQAYPRDMEKEKTMLVLALLLAKKVASHTPSLLRDVFHTTVNFINQNLRTYVRSLARNGMD
B4: Bak (other, UniProt Q16611 1-211, looked up)
chain: MASGQGPGPPRQECGEPALPSASEEQVAQDTEEVFRSYVFYRHQQEQEAEGVAAPADPEMVTLPLQPSSTMGQVGRQLAIIGDDINRRYDSEFQTMLQHLQPTAENAYEYFTKIATSLFESGINWGRVVALLGFGYRLALHVYQHGLTGFLGQVTRFVVDFMLHHCIARWIAQRGGWVAALNLGNGPILNVLVVLGVVLLGQFVVRRFFKS

Experiments:
[1] = target: T1, GFP-Bcl-GS (human, UniProt P42212 1-238 = GFP, limits assumed); experiment: co-immunoprecipitation from lysates of transiently transfected cells
T1 construct: Expressed by transient transfection and immunoprecipitated with polyclonal anti-GFP antibody; also called Bcl-G (short); wild-type Bcl-GS
Procedure: (§1) For co-immunoprecipitations and immunoblotting, immunoblotting was performed as described previously (Xu and Reed, supra., (1998); Zhang et al., supra., (2000)). For co-immunoprecipitations, cells were cultured in […] benzocarbonyl Valine Alanine Aspartate fluoromethyl-ketone (zVAD-fmk) to prevent apoptosis. Cells were suspended in lysis buffer (50 mM Tris-HCl, pH7.4; 150 mM NaCl; 20 mM EDTA; 50 mM NaF; 0.5% NP-40; 0.1 mM Na_3VO_4; 20 µg/ml Leupeptin; 20 µg/ml Aprotinin; 1 mM dithiothreitol (DTT); and 1 mM phenylmethylsulfonylfluoride (PMSF). Lysates (0.2 ml diluted into 1 ml final volume of lysis buffer) were cleared by incubation with 15 µl of protein G-Sepharose 4B (Zymed; South San Francisco Calif.) and then incubated with 15 µl of polyclonal anti-GFP antibody (Santa Cruz; Santa Cruz Calif.) and 15 µl of protein G at 4° C. overnight. Beads were then washed 4 times with 1.5 mls lysis buffer before boiling in Laemmli sample buffer and performing SDS-PAGE/immunoblotting.

[2] = target: Bcl-XL (UniProt Q07817 1-233); experiment: co-immunoprecipitation with anti-GFP antibody, anti-Bcl-XL immunoblot
Procedure: as §1

[3] = target: T2, Bcl-GS (yeast two-hybrid construct) (human, UniProt Q9BZR8 1-241); experiment: yeast two-hybrid
T2 construct: Used in yeast two-hybrid assays
T2 sequence: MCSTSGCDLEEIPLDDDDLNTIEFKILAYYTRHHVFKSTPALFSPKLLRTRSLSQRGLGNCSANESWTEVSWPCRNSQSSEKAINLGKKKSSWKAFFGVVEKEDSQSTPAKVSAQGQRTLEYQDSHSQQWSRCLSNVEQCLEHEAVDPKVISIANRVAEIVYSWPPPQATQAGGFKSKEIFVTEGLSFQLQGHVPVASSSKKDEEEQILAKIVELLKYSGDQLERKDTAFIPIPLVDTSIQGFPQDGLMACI

Sequence of Bcl-XL (Q07817 whole entry): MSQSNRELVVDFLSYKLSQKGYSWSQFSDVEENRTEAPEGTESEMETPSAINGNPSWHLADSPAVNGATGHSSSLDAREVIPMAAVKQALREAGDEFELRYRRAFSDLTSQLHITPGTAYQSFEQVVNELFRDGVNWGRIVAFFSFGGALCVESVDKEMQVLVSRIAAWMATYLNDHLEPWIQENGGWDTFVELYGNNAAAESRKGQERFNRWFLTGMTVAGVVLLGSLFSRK

Row | Binder | binding result [1] | binding result [2] | binding result [3]
1 | B1 | no binding | – | –
2 | B2 | – | no binding | –
3 | B3 | no binding | – | –
4 | B4 | no binding | – | no binding
